Consider one protein from publication PMC2275076 (Nucleic Acids Research, 2007).

The series concerns the molecule itself. Kind of series: SEC. (In gel filtration, larger molecules generally elute earlier.)

B1: Methanococcus maripaludis O-phosphoseryl-tRNA:selenocysteinyl-tRNA synthase (SepSecS) (enzyme, UniProt Q6LZM9 1-436, looked up)
chain: MLDFNIEGLIPKNMEKRGELVLNEYLKEIEDVFNHRKIPENGIDDEKIKLFLKFLSMMDTDKDPKSVRIGEREARTYSKIHEELSSGFCHGIGRSGNLVDPQPKASGASIMYALTNKILESFFKQLGLNVHAIATPISTGMSISLCLSAARKKYGSNVVIYPYASHKSPIKAVSFVGMNMRLVETVLDGDRVYVPVEDIENAIKKEIELGNRPCVLSTLTFFPPRNSDDIVEIAKICENYDIPHIINGAYAIQNNYYLEKLKKAFKYRVDAVVSSSDKNLLTPIGGGLVYSTDAEFIKEISLSYPGRASATPVVNTLVSLLSMGSKNYLELVKNQKNSKKLLDELLNDLSKKTGGKFLDVESPIASCISVNSDPVEIAAKLYNLRVTGPRGIKKTDHFGNCYLGTYTHDYIVMNAAIGVRTEDIVNSVSKLEKILL
modifications: selenomethionine-labeled; PLP covalently bound via a Schiff base to Lys278
In general, stoichiometry N refers to the number of molecules, sites or subunits per partner or assembly. Take B1: the “stoichiometry N” value is 4.
